molecular target: T1, full-length human Tau (Tau441; 2N4R), recombinant (human, UniProt P10636 1-758); experiment: SPR Biacore
T1 construct: made in E. coli, His6-Smt3 tag removed; biotinylated through amines for Octet and phage work; also called r-Tau; recombinant Tau
Protocol: IgG was purified with protein A affinity chromatography. The affinity of each hulC7 IgG variant for r-Tau was determined by surface plasmon resonance using a Biacore™ T200 instrument. Biacore™ Series S CM5 sensor chips were immobilized with monoclonal mouse anti-human IgG (Fc) antibody (Human antibody capture kit from GE Healthcare). Serial 3-fold dilutions of each hulC7 variant were injected at a flow rate of […]. Each sample was analyzed with 3-minute association and 10-minute dissociation. After each injection, the chip was regenerated using 3 M MgCl₂. Binding response was corrected by subtracting the RU from a flow cell capturing an irrelevant IgG at similar density. A 1:1 Languir model of simultaneous fitting of kₒₙ and koff was used for kinetics analysis.
A further round of affinity maturation was performed by mutating certain amino acids in selected CDR-H1, CDR-L1, and CDR-L3 sequences from Table 9A, as well as the sequence of CDR-H2 (SEQ ID NO:23) of hulC7.v2. Sequence changes were identified in each CDR (Table 9B). Binding affinities were evaluated using Biacore™ (Table 10B).

T1 sequence (P10636 other isoform, or with tags, fused parts or gaps limits assumed): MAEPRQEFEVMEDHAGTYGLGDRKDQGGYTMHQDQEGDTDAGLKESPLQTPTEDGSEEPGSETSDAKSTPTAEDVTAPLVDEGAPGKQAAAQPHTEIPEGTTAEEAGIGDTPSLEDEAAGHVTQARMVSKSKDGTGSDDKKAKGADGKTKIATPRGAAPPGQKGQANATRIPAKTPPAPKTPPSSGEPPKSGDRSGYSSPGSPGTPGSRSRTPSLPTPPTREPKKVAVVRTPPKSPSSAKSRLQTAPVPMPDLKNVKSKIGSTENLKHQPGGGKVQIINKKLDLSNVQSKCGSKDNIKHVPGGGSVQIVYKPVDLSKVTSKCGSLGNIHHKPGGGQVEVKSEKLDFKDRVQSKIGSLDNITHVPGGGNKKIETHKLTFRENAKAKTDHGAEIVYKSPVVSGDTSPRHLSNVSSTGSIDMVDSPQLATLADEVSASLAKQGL

Kd	koff	kon	Binder
1.3 nM	0.000183 s⁻¹	141000 M⁻¹ s⁻¹	Clone with H1_2-1 (antibody, V domains shown, based on hu1C7.v2) VH: EVQLLESGGGLVQPGGSLRLSCAASGFTFSSVGTSWVRQAPGKGLEWVASISGDGGSYIHYADSVKGRFTISRDNSKNTLYLQMNSLRAEDTAVYYCARLPYWGQGTLVTVSS VL: DIVMTQSPDSLAVSLGERATINCKSSQSLLNSGNQKNYLTWYQQKPGQPPKLLIYWASTRESGVPDRFSGSGSGTDFTLTISSLQAEDVAVYYCQQYNSYPLTFGQGTKVEIKR
0.759 nM	9.71e-05 s⁻¹	128000 M⁻¹ s⁻¹	Clone with H1_2-2 (antibody, V domains shown, based on hu1C7.v2) VH: EVQLLESGGGLVQPGGSLRLSCAASGFTFSMVGTSWVRQAPGKGLEWVASISGDGGSYIHYADSVKGRFTISRDNSKNTLYLQMNSLRAEDTAVYYCARLPYWGQGTLVTVSS VL: DIVMTQSPDSLAVSLGERATINCKSSQSLLNSGNQKNYLTWYQQKPGQPPKLLIYWASTRESGVPDRFSGSGSGTDFTLTISSLQAEDVAVYYCQQYNSYPLTFGQGTKVEIKR
0.502 nM	0.000203 s⁻¹	404000 M⁻¹ s⁻¹	Clone with H1_4-3 (antibody, V domains shown, based on hu1C7.v2) VH: EVQLLESGGGLVQPGGSLRLSCAASGFMFSGPGMSWVRQAPGKGLEWVASISGDGGSYIHYADSVKGRFTISRDNSKNTLYLQMNSLRAEDTAVYYCARLPYWGQGTLVTVSS VL: DIVMTQSPDSLAVSLGERATINCKSSQSLLNSGNQKNYLTWYQQKPGQPPKLLIYWASTRESGVPDRFSGSGSGTDFTLTISSLQAEDVAVYYCQQYNSYPLTFGQGTKVEIKR
0.578 nM	0.000144 s⁻¹	249000 M⁻¹ s⁻¹	Clone with H1_2-5 (antibody, V domains shown, based on hu1C7.v2) VH: EVQLLESGGGLVQPGGSLRLSCAASGFTFSKVGTSWVRQAPGKGLEWVASISGDGGSYIHYADSVKGRFTISRDNSKNTLYLQMNSLRAEDTAVYYCARLPYWGQGTLVTVSS VL: DIVMTQSPDSLAVSLGERATINCKSSQSLLNSGNQKNYLTWYQQKPGQPPKLLIYWASTRESGVPDRFSGSGSGTDFTLTISSLQAEDVAVYYCQQYNSYPLTFGQGTKVEIKR
1.41 nM	0.000151 s⁻¹	107000 M⁻¹ s⁻¹	Clone with H1_2-4 (antibody, V domains shown, based on hu1C7.v2) VH: EVQLLESGGGLVQPGGSLRLSCAASGFTFSLVGTSWVRQAPGKGLEWVASISGDGGSYIHYADSVKGRFTISRDNSKNTLYLQMNSLRAEDTAVYYCARLPYWGQGTLVTVSS VL: DIVMTQSPDSLAVSLGERATINCKSSQSLLNSGNQKNYLTWYQQKPGQPPKLLIYWASTRESGVPDRFSGSGSGTDFTLTISSLQAEDVAVYYCQQYNSYPLTFGQGTKVEIKR
0.477 nM	9.39e-05 s⁻¹	197000 M⁻¹ s⁻¹	Clone with H1_2-3 (antibody, V domains shown, based on hu1C7.v2) VH: EVQLLESGGGLVQPGGSLRLSCAASGFTFSQVGTSWVRQAPGKGLEWVASISGDGGSYIHYADSVKGRFTISRDNSKNTLYLQMNSLRAEDTAVYYCARLPYWGQGTLVTVSS VL: DIVMTQSPDSLAVSLGERATINCKSSQSLLNSGNQKNYLTWYQQKPGQPPKLLIYWASTRESGVPDRFSGSGSGTDFTLTISSLQAEDVAVYYCQQYNSYPLTFGQGTKVEIKR
6.4 nM	0.00309 s⁻¹	484000 M⁻¹ s⁻¹	Clone with H2_4 (antibody, V domains shown, based on hu1C7.v2) VH: EVQLLESGGGLVQPGGSLRLSCAASGFTFSSYGMSWVRQAPGKGLEWVASISGDAGSYIHYADSVKGRFTISRDNSKNTLYLQMNSLRAEDTAVYYCARLPYWGQGTLVTVSS VL: DIVMTQSPDSLAVSLGERATINCKSSQSLLNSGNQKNYLTWYQQKPGQPPKLLIYWASTRESGVPDRFSGSGSGTDFTLTISSLQAEDVAVYYCQQYNSYPLTFGQGTKVEIKR
3.81 nM	0.00126 s⁻¹	331000 M⁻¹ s⁻¹	Clone with H1_4-4 (antibody, V domains shown, based on hu1C7.v2) VH: EVQLLESGGGLVQPGGSLRLSCAASGFRFSSPGMSWVRQAPGKGLEWVASISGDGGSYIHYADSVKGRFTISRDNSKNTLYLQMNSLRAEDTAVYYCARLPYWGQGTLVTVSS VL: DIVMTQSPDSLAVSLGERATINCKSSQSLLNSGNQKNYLTWYQQKPGQPPKLLIYWASTRESGVPDRFSGSGSGTDFTLTISSLQAEDVAVYYCQQYNSYPLTFGQGTKVEIKR
0.837 nM	0.000144 s⁻¹	172000 M⁻¹ s⁻¹	Clone with H1_4-1 (antibody, V domains shown, based on hu1C7.v2) VH: EVQLLESGGGLVQPGGSLRLSCAASGFTFSGPGMSWVRQAPGKGLEWVASISGDGGSYIHYADSVKGRFTISRDNSKNTLYLQMNSLRAEDTAVYYCARLPYWGQGTLVTVSS VL: DIVMTQSPDSLAVSLGERATINCKSSQSLLNSGNQKNYLTWYQQKPGQPPKLLIYWASTRESGVPDRFSGSGSGTDFTLTISSLQAEDVAVYYCQQYNSYPLTFGQGTKVEIKR
8.28 nM	0.00369 s⁻¹	446000 M⁻¹ s⁻¹	Clone with H2_1 (antibody, V domains shown, based on hu1C7.v2) VH: EVQLLESGGGLVQPGGSLRLSCAASGFTFSSYGMSWVRQAPGKGLEWVASISGEGGSYIHYADSVKGRFTISRDNSKNTLYLQMNSLRAEDTAVYYCARLPYWGQGTLVTVSS VL: DIVMTQSPDSLAVSLGERATINCKSSQSLLNSGNQKNYLTWYQQKPGQPPKLLIYWASTRESGVPDRFSGSGSGTDFTLTISSLQAEDVAVYYCQQYNSYPLTFGQGTKVEIKR
9.68 nM	0.00408 s⁻¹	422000 M⁻¹ s⁻¹	Clone with H2_3 (antibody, V domains shown, based on hu1C7.v2) VH: EVQLLESGGGLVQPGGSLRLSCAASGFTFSSYGMSWVRQAPGKGLEWVASISGSGGSYIHYADSVKGRFTISRDNSKNTLYLQMNSLRAEDTAVYYCARLPYWGQGTLVTVSS VL: DIVMTQSPDSLAVSLGERATINCKSSQSLLNSGNQKNYLTWYQQKPGQPPKLLIYWASTRESGVPDRFSGSGSGTDFTLTISSLQAEDVAVYYCQQYNSYPLTFGQGTKVEIKR
0.416 nM	0.000128 s⁻¹	308000 M⁻¹ s⁻¹	Clone with H1_4-2 (antibody, V domains shown, based on hu1C7.v2) VH: EVQLLESGGGLVQPGGSLRLSCAASGFQFSGPGMSWVRQAPGKGLEWVASISGDGGSYIHYADSVKGRFTISRDNSKNTLYLQMNSLRAEDTAVYYCARLPYWGQGTLVTVSS VL: DIVMTQSPDSLAVSLGERATINCKSSQSLLNSGNQKNYLTWYQQKPGQPPKLLIYWASTRESGVPDRFSGSGSGTDFTLTISSLQAEDVAVYYCQQYNSYPLTFGQGTKVEIKR
0.591 nM	0.000163 s⁻¹	276000 M⁻¹ s⁻¹	Clone with H1_4-5 (antibody, V domains shown, based on hu1C7.v2) VH: EVQLLESGGGLVQPGGSLRLSCAASGFRFSGYGMSWVRQAPGKGLEWVASISGDGGSYIHYADSVKGRFTISRDNSKNTLYLQMNSLRAEDTAVYYCARLPYWGQGTLVTVSS VL: DIVMTQSPDSLAVSLGERATINCKSSQSLLNSGNQKNYLTWYQQKPGQPPKLLIYWASTRESGVPDRFSGSGSGTDFTLTISSLQAEDVAVYYCQQYNSYPLTFGQGTKVEIKR
9.11 nM	0.00378 s⁻¹	415000 M⁻¹ s⁻¹	Clone with H2_2 (antibody, V domains shown, based on hu1C7.v2) VH: EVQLLESGGGLVQPGGSLRLSCAASGFTFSSYGMSWVRQAPGKGLEWVASISGTGGSYIHYADSVKGRFTISRDNSKNTLYLQMNSLRAEDTAVYYCARLPYWGQGTLVTVSS VL: DIVMTQSPDSLAVSLGERATINCKSSQSLLNSGNQKNYLTWYQQKPGQPPKLLIYWASTRESGVPDRFSGSGSGTDFTLTISSLQAEDVAVYYCQQYNSYPLTFGQGTKVEIKR

From patent publication US20200216522A1 (DENALI THERAPEUTICS, published 2020)
